The results in this text go back to PMC12444091.

For orientation: pKa means the negative logarithm of the acid dissociation constant.

Common to all, as to experiment: potentiometry
Conditions in all cases: 25 °C (± 0.2 °C); 0.1 M (KCl); none (4 mM HCl, 0.1 M KCl); peptide 0.001 M; metal-free peptide, unstructured (random-coil CD spectrum)

Series [1] concerns the target Asp129 (UniProt position 129, …).
The target is the same in series [2]. The source holds these as a separate data set.
Series [3] addresses His124 (UniProt position 124, …).
For series [4] the target is unchanged. The source holds these as a separate data set.
The target in series [5] is Asp129 (UniProt position 129, …). The source holds these as a separate data set.

In the case of HEARQDEH [HSPB1(124-131) peptide L4, Ac-HEARQDEH-NH2 (Homo sapiens; E126A)], the pKa in series [1] came to 3.26. HEERQDEA [HSPB1(124-131) peptide L2, Ac-HEERQDEA-NH2 (Homo sapiens; H131A)]: the pKa came to 3.60 in series [2] and 7.00 in series [3]. Turning to HEARQDEA [HSPB1(124-131) peptide L3, Ac-HEARQDEA-NH2 (Homo sapiens; E126A;H131A)], the pKa in series [4] is recorded as 6.71; in series [5], 3.47.
